In the RNAGym collection of RNA variant scans (doi:10.1093/nar/gkz1192):

B1: CPEB3 Ribozyme (parent)
chain: UAACAGGGGGCCACAGCAGAAGCGUUCACGUCGCAGCCCCUGUCAGAUUCUGGUGAAUCUGCGAAUUCUGCUGUAUAUCUC

Variants of: B1
Assay: self-cleavage, relative activity (ratio to wild type); higher = more cleavage; in vitro, sequencing
Procedure, shortened: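 Libraries of CPEB3 self-cleaving ribozyme mutants came from rounds of error-prone PCR and carried barcodes, which DNA sequencing matched to variants. In vitro transcription used T7 RNA polymerase at 37°C for 5 hours, with a further 15 min in DNase I before EDTA stopped the reaction; the ribozymes cleaved during both steps. The RNA was reverse transcribed with template switching and sequenced on Illumina. Relative activity is the cleaved/total read fraction of a variant divided by that of the unmutated ribozyme, averaged over three batches with at least 5 reads.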

| Variant | self-cleavage |
| --- | --- |
| UAACAGGGGGCCUCAGCAGAAGCGUUCACGUCGCAGCCACUGUCAGAUUCUGGUGAAUCUGCGAAUUCUGCUGUAUAUCUC [A13U C39A] | 0.15 |
| UAACAGGGGGCCUCAGCAGAAGCGUUCACGUCGCAGCCGCUGUCAGAUUCUGGUGAAUCUGCGAAUUCUGCUGUAUAUCUC [A13U C39G] | 0.51 |
| UAACAGGGGGCCUCAGCAGAAGCGUUCACGUCGCAGCCUCUGUCAGAUUCUGGUGAAUCUGCGAAUUCUGCUGUAUAUCUC [A13U C39U] | 1.18 |
| UAACAGGGGGCCUCAGCAGAAGCGUUCACGUCGCAGCCCUUGUCAGAUUCUGGUGAAUCUGCGAAUUCUGCUGUAUAUCUC [A13U C40U] | 1.25 |
| UAACAGGGGGCCUCAGCAGAAGCGUUCACGUCGCAGCCCCUGUAAGAUUCUGGUGAAUCUGCGAAUUCUGCUGUAUAUCUC [A13U C44A] | 0.29 |
| UAACAGGGGGCCUCAGCAGAAGCGUUCACGUCGCAGCCCCUGUUAGAUUCUGGUGAAUCUGCGAAUUCUGCUGUAUAUCUC [A13U C44U] | 0.23 |
| UAACAGGGGGCCUCAGCAGAAGCGUUCACGUCGCAGCCCCUGUCAGAUUAUGGUGAAUCUGCGAAUUCUGCUGUAUAUCUC [A13U C50A] | 0.98 |
| UAACAGGGGGCCUCAGCAGAAGCGUUCACGUCGCAGCCCCUGUCAGAUUUUGGUGAAUCUGCGAAUUCUGCUGUAUAUCUC [A13U C50U] | 0.89 |
| UAACAGGGGGCCUCAGCAGAAGCGUUCACGUCGCAGCCCCUGUCAGAUUCUGGUGAAUAUGCGAAUUCUGCUGUAUAUCUC [A13U C59A] | 0.58 |
| UAACAGGGGGCCUCAGCAGAAGCGUUCACGUCGCAGCCCCUGUCAGAUUCUGGUGAAUCUGUGAAUUCUGCUGUAUAUCUC [A13U C62U] | 0.22 |
| UAACAGGGGGCCUCAGCAGAAGCGUUCACGUCGCAGCCCCUGUCAGAUUCUGGUGAAUCUGCGAAUUAUGCUGUAUAUCUC [A13U C68A] | 0.54 |
| UAACAGGGGGCCUCAGCAGAAGCGUUCACGUCGCAGCCCCUGUCAGAUUCUGGUGAAUCUGCGAAUUUUGCUGUAUAUCUC [A13U C68U] | 1.21 |
| UAACAGGGGGCCUCAGCAGAAGCGUUCACGUCGCAGCCCCUGUCAGAUUCUGGUGAAUCUGCGAAUUCUGAUGUAUAUCUC [A13U C71A] | 0.33 |
| UAACAGGGGGCCUCAGCAGAAGCGUUCACGUCGCAGCCCCUGUCAGAUUCUGGUGAAUCUGCGAAUUCUGCUGUAUAUAUC [A13U C79A] | 1.28 |
| UAACAGGGGGCCUCAGCAGAAGCGUUCACGUCGCAGCCCCUGUCAGAUUCUGGUGAAUCUGCGAAUUCUGCUGUAUAUUUC [A13U C79U] | 1.31 |
| UAACAGGGGGCCUCAGCAGAAGCGUUCACGUCGCAGCCCCUGUCAGAUUCUGGUGAAUCUGCGAAUUCUGCUGUAUAUCUU [A13U C81U] | 1.2 |
| UAACAGGGGGCCUCAUCAGAAGCGUUCACGUCGCAGCCCCUGUCAGAUUCUGGUGAAUCUGCGAAUUCUGCUGUAUAUCUC [A13U G16U] | 0.47 |

| Variant | self-cleavage |
| --- | --- |
| UAACAGGGGGCCUCAGCAAAAGCGUUCACGUCGCAGCCCCUGUCAGAUUCUGGUGAAUCUGCGAAUUCUGCUGUAUAUCUC [A13U G19A] | 0.17 |
| UAACAGGGGGCCUCAGCAGAACCGUUCACGUCGCAGCCCCUGUCAGAUUCUGGUGAAUCUGCGAAUUCUGCUGUAUAUCUC [A13U G22C] | 0.19 |
| UAACAGGGGGCCUCAGCAGAAUCGUUCACGUCGCAGCCCCUGUCAGAUUCUGGUGAAUCUGCGAAUUCUGCUGUAUAUCUC [A13U G22U] | 0.34 |
| UAACAGGGGGCCUCAGCAGAAGCAUUCACGUCGCAGCCCCUGUCAGAUUCUGGUGAAUCUGCGAAUUCUGCUGUAUAUCUC [A13U G24A] | 0.26 |
| UAACAGGGGGCCUCAGCAGAAGCGUUCACAUCGCAGCCCCUGUCAGAUUCUGGUGAAUCUGCGAAUUCUGCUGUAUAUCUC [A13U G30A] | 0.24 |
| UAACAGGGGGCCUCAGCAGAAGCGUUCACUUCGCAGCCCCUGUCAGAUUCUGGUGAAUCUGCGAAUUCUGCUGUAUAUCUC [A13U G30U] | 0.11 |
| UAACAGGGGGCCUCAGCAGAAGCGUUCACGUCACAGCCCCUGUCAGAUUCUGGUGAAUCUGCGAAUUCUGCUGUAUAUCUC [A13U G33A] | 0.21 |
| UAACAGGGGGCCUCAGCAGAAGCGUUCACGUCCCAGCCCCUGUCAGAUUCUGGUGAAUCUGCGAAUUCUGCUGUAUAUCUC [A13U G33C] | 0.2 |
| UAACAGGGGGCCUCAGCAGAAGCGUUCACGUCUCAGCCCCUGUCAGAUUCUGGUGAAUCUGCGAAUUCUGCUGUAUAUCUC [A13U G33U] | 0.11 |
| UAACAGGGGGCCUCAGCAGAAGCGUUCACGUCGCAACCCCUGUCAGAUUCUGGUGAAUCUGCGAAUUCUGCUGUAUAUCUC [A13U G36A] | 0.33 |
| UAACAGGGGGCCUCAGCAGAAGCGUUCACGUCGCAGCCCCUAUCAGAUUCUGGUGAAUCUGCGAAUUCUGCUGUAUAUCUC [A13U G42A] | 0.19 |
| UAACAGGGGGCCUCAGCAGAAGCGUUCACGUCGCAGCCCCUUUCAGAUUCUGGUGAAUCUGCGAAUUCUGCUGUAUAUCUC [A13U G42U] | 0.12 |
| UAACAGGGGGCCUCAGCAGAAGCGUUCACGUCGCAGCCCCUGUCAGAUUCUAGUGAAUCUGCGAAUUCUGCUGUAUAUCUC [A13U G52A] | 1.22 |
| UAACAGGGGGCCUCAGCAGAAGCGUUCACGUCGCAGCCCCUGUCAGAUUCUCGUGAAUCUGCGAAUUCUGCUGUAUAUCUC [A13U G52C] | 1.24 |
| UAACAGGGGGCCUCAGCAGAAGCGUUCACGUCGCAGCCCCUGUCAGAUUCUGAUGAAUCUGCGAAUUCUGCUGUAUAUCUC [A13U G53A] | 1.27 |
| UAACAGGGGGCCUCAGCAGAAGCGUUCACGUCGCAGCCCCUGUCAGAUUCUGGUUAAUCUGCGAAUUCUGCUGUAUAUCUC [A13U G55U] | 0.83 |
| UAACAGGGGGCCUCAGCAGAAGCGUUCACGUCGCAGCCCCUGUCAGAUUCUGGUGAAUCUACGAAUUCUGCUGUAUAUCUC [A13U G61A] | 0.91 |
